# From article PMC6625990, “Structural underpinnings of Ric8A function as a G-protein α-subunit chaperone and guanine-nucleotide exchange factor” (Nature Communications, 2019)
# Values joined by “and” are separate entries in the source; they are usually repeats but may differ in a detail not shown here. Equal values may be shown once. No end group written: not given here. *: point of attachment. Biotin = O=C1N[C@H]2[C@H](CS[C@H]2CCCCC(=O)*)N1
# T1: MBP-Gαt327–350 (UniProt P04695 327-350)
# T1 construct: In pET15b; also called 24 C-terminal residues of Gαt fused to MBP; tagged C-terminal fragment of Gα; source: E. coli BL21(DE3), purified (Ni-NTA, SEC); not shown: MBP (E. coli MBP28–394 with D110A/K111A/E200A/N201A/A243H/K247H/K267A, joined by an AAAH linker), N-terminal, kept
# T1 chain (looked up): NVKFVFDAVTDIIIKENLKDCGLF
# T2: GB1-Gαt340–350 (UniProt P04695 340-350)
# T2 construct: transducin-α (Gαt, Gαt1), the 11 C-terminal residues 340-350; Cloned into a modified pQE30 vector containing the GB1 tag; also called 11 C-terminal residues of Gαt fused to the B1 domain of Streptococcal protein G; source: E. coli BL21(DE3); purification not described
# T2 chain (looked up): IKENLKDCGLF
# T3: Gαs363–380 (UniProt P63092-2 363-380)
# T3 construct: Gαs, C-terminal 18 residues 363-380; the numbers fit the 380-residue short form; also called peptide comprised of the C-terminal 18 residues of Gαs; Gαs C-terminal peptide
# T3 peptide (looked up): Biotin-NDCRDIIQRMHLRQYELL
# B1: bovine Ric8A1–492 (domain or fragment, UniProt Q5E9J8 1-492, looked up)
# chain: MEPRAVADALETGEEDVVMEALRAYNRENSQSFTFDDAQQEDRKRLAKLLVSVLEQGLPPSRRVIWLQSIRILSRDRSCLDSFTSRRSLQALACYAGISASQGSVPEPLNMDVVLESLKCLCNLVLSSPVAQALAAEAGLVVRLAERVGLCRQSSFPHDVQFFDLRLLFLLTALRTDVRQQLFQELQGVRLLTRALELTLGMTEGERHPELLPPQETERAMEILKVLFNITFDSIKREVDEEDAALYRHLGTLLRHCVMLAAAGDRTEELHGHAVNLLGNLPVKCLDVLLTLEPHEGSLEFLGVNMDVIRVLLSFMEKRLHQTHRLKESVAPVLSVLTECARMHRPARKFLKAQVLPPLRDVRTRPEVGELLRNKLVRLMTHLDTDVKRVAAEFLFVLCSESVPRFIKYTGYGNAAGLLAARGLMAGGRPEGQYSEDEDTDTDEYKEAKASINPVTGRVEEKPPNPMEGMTEEQKEHEAMKLVNMFDKLSRH
# B2: Gαt333–350 (peptide, UniProt P04695 333-350, looked up)
# peptide: Biotin-DAVTDIIIKENLKDCGLF
# notes: also called 18-mer C-terminal peptide of Gαt; biotinylated Gαt333–350
# Key:
# Conditions in all cases: both partners purified
# MBP-Gαt327–350 = molecular target: T1, MBP-Gαt327–350; experiment: SEC; Ric8A1–492 mixed with GB1-Gαt340–350 or MBP-Gαt327–350; elution profiles
# GB1-Gαt340–350 = molecular target: T2, GB1-Gαt340–350; experiment: as above
# Gαt333–350 = molecular target: B2; experiment: differential scanning fluorimetry; Ric8A constructs at 0.5 mg/ml with or without 50 µM peptide, Sypro Orange, 20 mM Tris-HCl pH 7.5, 150 mM KCl, 5% glycerol, 1 mM TCEP
# Gαs363–380 = molecular target: T3, Gαs363–380; experiment: BLI; N-terminally biotinylated Gα peptides on streptavidin biosensors, Ric8A proteins in solution; Octet RED96, 26 °C, 20 mM Tris, 150 mM KCl, 5% glycerol, 1 mM TCEP, 0.5 mg/ml BSA, pH 8.0; kinetic fit (1:1 model) and steady-state fit (one site)
# bovine Ric8A1–492 [1] = molecular target: B1; experiment: BLI; full-length Avi-tagged Gαt on streptavidin biosensors, Ric8A1–492 proteins in solution; 26 °C, 20 mM Tris, 150 mM KCl, 5% glycerol, 1 mM TCEP, 0.5 mg/ml BSA, pH 8.0; steady-state fit
# bovine Ric8A1–492 [2] = molecular target: B1; experiment: BLI; N-terminally biotinylated Gα peptides on streptavidin biosensors, Ric8A proteins in solution; Octet RED96, 26 °C, 20 mM Tris, 150 mM KCl, 5% glycerol, 1 mM TCEP, 0.5 mg/ml BSA, pH 8.0; kinetic fit (1:1 model) and steady-state fit (one site)
binder,measurement,setting,value
B1,stoichiometry N,MBP-Gαt327–350,~1
same,stoichiometry N,GB1-Gαt340–350,~1
same,shift of Tm,Gαt333–350,~9 °C
same,fold lower affinity than to Gαt333–350,Gαs363–380,~18 fold
"full-length Avi-tagged Gαt (natural protein, biotin on the Avi tag (cells grown in media supplemented with biotin)) MGAGASAEEKHSRELEKKLKEDAEKDARTVKLLLLGAGESGKSTIVKQMKIIHQDGYSLEECLEFIAIIYGNTLQSILAIVRAMTTLNIQYGDSARQDDARKLMHMADTIEEGTMPKEMSDIIQRLWKDSGIQACFDRASEYQLNDSAGYYLSDLERLVTPGYVPTEQDVLRSRVKTTGIIETQFSFKDLNFRMFDVGGQRSERKKWIHCFEGVTAIIFCVALSDYDLVLAEDEEMNRMHESMKLFDSICNNKWFTDTSIILFLNKKDLFEEKIKKSPLTICYPEYAGSNTYEEAGNYIKVQFLELNMRRDVKEIYSHMTCATDTQNVKFVFDAVTDIIIKENLKDCGLF",Kd,bovine Ric8A1–492 [1],24 nM
"Biotin-NDCRDIIIRMNLRQCGLF (cysteine pairing not given here, Gαs C-terminal 18-mer without its last four residues, with Q370I and H373N; the numbers fit the 380-residue short form; the four C-terminal residues of Gαt; Peptide C1 with two additional substitutions) [peptide C2]",binding result,bovine Ric8A1–492 [2],binds
"Biotin-NDCRDIIQRMHLRQCGLF (cysteine pairing not given here, Gαs C-terminal 18-mer without its last four residues; the numbers fit the 380-residue short form; the four C-terminal residues of Gαt; also called chimeric C-terminal peptide of Gαs ending in CGLF) [peptide C1]",binding result,bovine Ric8A1–492 [2],binds
B2,Kd,bovine Ric8A1–492 [2],240 nM and 280 nM and 270 nM
same,koff,bovine Ric8A1–492 [2],0.031 s⁻¹
same,kon,bovine Ric8A1–492 [2],130000 M⁻¹ s⁻¹
"Avi-tagged I340Q/N343H mutant of Gαt (natural protein, biotin on the Avi tag (cells grown in media supplemented with biotin)) MGAGASAEEKHSRELEKKLKEDAEKDARTVKLLLLGAGESGKSTIVKQMKIIHQDGYSLEECLEFIAIIYGNTLQSILAIVRAMTTLNIQYGDSARQDDARKLMHMADTIEEGTMPKEMSDIIQRLWKDSGIQACFDRASEYQLNDSAGYYLSDLERLVTPGYVPTEQDVLRSRVKTTGIIETQFSFKDLNFRMFDVGGQRSERKKWIHCFEGVTAIIFCVALSDYDLVLAEDEEMNRMHESMKLFDSICNNKWFTDTSIILFLNKKDLFEEKIKKSPLTICYPEYAGSNTYEEAGNYIKVQFLELNMRRDVKEIYSHMTCATDTQNVKFVFDAVTDIIQKEHLKDCGLF",Kd,bovine Ric8A1–492 [1],2300 nM
